Laboratory results as given in the supplement of paper PMC10065799, “High-throughput profiling of sequence recognition by tyrosine kinases and SH2 domains using bacterial peptide display” (eLife, 2023).

Test system: c-Abl (mouse)
Test: phosphorylation enrichment, bacterial display (enrichment ratio); higher = better substrate or ligand; peptides without Tyr show the background
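Also: 11-residue human phosphosite peptides and single-mutation variants displayed on the E. coli surface, counted by deep sequencing, each peptide's frequency after selection divided by its frequency in the unselected input library; frequency after pTyr selection over input frequency; kinase dosed for 20-30% of maximal phosphorylation in three min.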

Point of comparison: HFPFQCHRQLY [F12_Y53_Y53C], phosphorylation enrichment 0.532. Against it:
- QMVGMYASSSM [AVPR2_Y124_Y128S] — higher, 0.807
- EFAAGYNVKFD [GPX4_Y123] — lower, 0.389
- HHTDECEYDEL [TGM1_Y134_Y134C] — higher, 0.906
- TNITEYCRDLI [RECQL_Y492_K487T] — higher, 0.81
- EQDRAYLEGTC [HLA-C_Y183_L180D] — higher, 0.84
- LSEEKYELKEG [TREM1_Y29_T25S] — higher, 0.875
- VHSGTYQVTVC [MYBPC3_Y1043_R1048C] — higher, 0.883
- TIEDSYRKQVV [KRAS_Y40] — higher, 0.599
- RICRRYCQVLN [IQCF1_Y144_R141C] — higher, 0.701
- VLICAYLLHRG [PTEN_Y138_M134L] — higher, 0.833
- TLEKFYFAFPG [SLC1A1_Y51] — higher, 7.49
- AHAGGYGAEAL [HBA1_Y25_E24G] — higher, 0.599
- YKEQGYHRLPP [RIN1_Y681] — lower, 0.455
- RAHARYCADAR [ACOT4_Y52] — higher, 0.689
- CPPKVYELMIA [ABL2_Y515_R519I] — higher, 0.766
- FTFTSYFMHWV [IGHV1-46_Y51_YF] — higher, 1.05
- IRTGIYHGGEP [PIK3CA_Y361_V356I] — lower, 0.516
- CENNRYGMGAS [PDHA1_Y227_T231A] — higher, 0.594
- LDLSYYPTSSS [EMD_Y182] — higher, 1.41
- EQKKYYNAMKK [SCN5A_Y1495] — lower, 0.519
- MSSLYYANALF [HOXB7_Y6_T9A] — higher, 3.44
- QAQMDYRRLQP [MPL_Y591] — higher, 0.622
- DAKTIYDFTDT [PDK1_Y136_A134T] — higher, 0.724
- IHTEFYDGLFP [BCR_Y561_K558T] — higher, 0.902
- PLKFLYPNIDK [STAT1_Y668_YF] — higher, 1.38
- QTPVLYAMLFH [MPZ_Y220_D224Y_YF] — higher, 1.61
- DPLASYLDKVR [KRT10_Y160_R156P] — lower, 0.392
- TVEDHDFEGGI [TKT_Y563_Y563D_YF] — higher, 0.765
- NRNVRYLTLDI [AKR1C2_Y305] — higher, 0.635
- NKHTTYTMEHI [ACTN1_Y708_N707T] — lower, 0.514
- AMCVCYDGVEV [ADAMTSL2_Y594_R593C] — higher, 0.816
- RQNQEYEILMD [KRT39_Y379_L383M] — higher, 0.994

Target: Hck (UniProt P08631)
Sequence (P08631 whole entry, looked up): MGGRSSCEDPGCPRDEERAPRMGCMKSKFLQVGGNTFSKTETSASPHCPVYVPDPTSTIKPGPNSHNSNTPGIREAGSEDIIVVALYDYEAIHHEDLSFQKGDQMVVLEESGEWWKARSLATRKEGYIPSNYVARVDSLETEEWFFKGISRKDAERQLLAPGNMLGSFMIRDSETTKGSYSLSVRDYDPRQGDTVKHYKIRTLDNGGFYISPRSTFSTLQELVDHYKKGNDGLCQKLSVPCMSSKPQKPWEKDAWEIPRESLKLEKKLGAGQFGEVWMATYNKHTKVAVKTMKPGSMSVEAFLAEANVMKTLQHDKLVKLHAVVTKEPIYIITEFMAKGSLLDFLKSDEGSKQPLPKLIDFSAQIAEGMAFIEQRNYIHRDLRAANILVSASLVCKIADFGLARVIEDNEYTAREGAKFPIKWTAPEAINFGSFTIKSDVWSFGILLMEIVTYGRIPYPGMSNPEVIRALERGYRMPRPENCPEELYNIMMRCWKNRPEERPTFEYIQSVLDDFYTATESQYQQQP
Test: as above

Point of comparison: DAKTIYDFTDT [PDK1_Y136_A134T], phosphorylation enrichment 1.33. Against it:
- QMVGMYASSSM [AVPR2_Y124_Y128S] — lower, 0.766
- EFAAGYNVKFD [GPX4_Y123] — lower, 0.449
- HHTDECEYDEL [TGM1_Y134_Y134C] — lower, 0.667
- TNITEYCRDLI [RECQL_Y492_K487T] — lower, 0.569
- EQDRAYLEGTC [HLA-C_Y183_L180D] — lower, 0.507
- LSEEKYELKEG [TREM1_Y29_T25S] — lower, 0.513
- VHSGTYQVTVC [MYBPC3_Y1043_R1048C] — lower, 0.588
- TIEDSYRKQVV [KRAS_Y40] — lower, 0.358
- RICRRYCQVLN [IQCF1_Y144_R141C] — lower, 0.7
- VLICAYLLHRG [PTEN_Y138_M134L] — lower, 0.608
- TLEKFYFAFPG [SLC1A1_Y51] — higher, 1.62
- HFPFQCHRQLY [F12_Y53_Y53C] — lower, 0.681
- AHAGGYGAEAL [HBA1_Y25_E24G] — lower, 0.454
- YKEQGYHRLPP [RIN1_Y681] — lower, 0.35
- RAHARYCADAR [ACOT4_Y52] — lower, 0.54
- CPPKVYELMIA [ABL2_Y515_R519I] — lower, 1.03
- FTFTSYFMHWV [IGHV1-46_Y51_YF] — lower, 0.451
- IRTGIYHGGEP [PIK3CA_Y361_V356I] — lower, 0.572
- CENNRYGMGAS [PDHA1_Y227_T231A] — lower, 0.392
- LDLSYYPTSSS [EMD_Y182] — lower, 0.947
- EQKKYYNAMKK [SCN5A_Y1495] — lower, 0.34
- MSSLYYANALF [HOXB7_Y6_T9A] — higher, 6.04
- QAQMDYRRLQP [MPL_Y591] — lower, 0.367
- IHTEFYDGLFP [BCR_Y561_K558T] — higher, 3.83
- PLKFLYPNIDK [STAT1_Y668_YF] — lower, 1.09
- QTPVLYAMLFH [MPZ_Y220_D224Y_YF] — higher, 5.5
- DPLASYLDKVR [KRT10_Y160_R156P] — lower, 0.477
- TVEDHDFEGGI [TKT_Y563_Y563D_YF] — lower, 0.538
- NRNVRYLTLDI [AKR1C2_Y305] — lower, 0.523
- NKHTTYTMEHI [ACTN1_Y708_N707T] — lower, 0.451
- AMCVCYDGVEV [ADAMTSL2_Y594_R593C] — lower, 0.655
- RQNQEYEILMD [KRT39_Y379_L383M] — lower, 0.695

Test system: AncSZ
Test: as above

Point of comparison: EFAAGYNVKFD [GPX4_Y123], phosphorylation enrichment 0.739. Against it:
- QMVGMYASSSM [AVPR2_Y124_Y128S] — lower, 0.647
- HHTDECEYDEL [TGM1_Y134_Y134C] — higher, 1.8
- TNITEYCRDLI [RECQL_Y492_K487T] — higher, 1.01
- EQDRAYLEGTC [HLA-C_Y183_L180D] — higher, 1.1
- LSEEKYELKEG [TREM1_Y29_T25S] — higher, 1.54
- VHSGTYQVTVC [MYBPC3_Y1043_R1048C] — higher, 1.03
- TIEDSYRKQVV [KRAS_Y40] — lower, 0.62
- RICRRYCQVLN [IQCF1_Y144_R141C] — higher, 1.03
- VLICAYLLHRG [PTEN_Y138_M134L] — higher, 1.06
- TLEKFYFAFPG [SLC1A1_Y51] — higher, 1.53
- HFPFQCHRQLY [F12_Y53_Y53C] — lower, 0.689
- AHAGGYGAEAL [HBA1_Y25_E24G] — lower, 0.63
- YKEQGYHRLPP [RIN1_Y681] — lower, 0.478
- RAHARYCADAR [ACOT4_Y52] — lower, 0.614
- CPPKVYELMIA [ABL2_Y515_R519I] — higher, 1.24
- FTFTSYFMHWV [IGHV1-46_Y51_YF] — higher, 1.16
- IRTGIYHGGEP [PIK3CA_Y361_V356I] — lower, 0.522
- CENNRYGMGAS [PDHA1_Y227_T231A] — lower, 0.655
- LDLSYYPTSSS [EMD_Y182] — higher, 2.17
- EQKKYYNAMKK [SCN5A_Y1495] — lower, 0.551
- MSSLYYANALF [HOXB7_Y6_T9A] — higher, 1.04
- QAQMDYRRLQP [MPL_Y591] — lower, 0.666
- DAKTIYDFTDT [PDK1_Y136_A134T] — higher, 1.07
- IHTEFYDGLFP [BCR_Y561_K558T] — higher, 1.47
- PLKFLYPNIDK [STAT1_Y668_YF] — higher, 1.26
- QTPVLYAMLFH [MPZ_Y220_D224Y_YF] — higher, 0.771
- DPLASYLDKVR [KRT10_Y160_R156P] — higher, 0.751
- TVEDHDFEGGI [TKT_Y563_Y563D_YF] — higher, 1.06
- NRNVRYLTLDI [AKR1C2_Y305] — higher, 0.744
- NKHTTYTMEHI [ACTN1_Y708_N707T] — lower, 0.527
- AMCVCYDGVEV [ADAMTSL2_Y594_R593C] — higher, 1.42
- RQNQEYEILMD [KRT39_Y379_L383M] — higher, 1.53

Target: FGFR1 (UniProt P11362)
Sequence (P11362 whole entry, looked up): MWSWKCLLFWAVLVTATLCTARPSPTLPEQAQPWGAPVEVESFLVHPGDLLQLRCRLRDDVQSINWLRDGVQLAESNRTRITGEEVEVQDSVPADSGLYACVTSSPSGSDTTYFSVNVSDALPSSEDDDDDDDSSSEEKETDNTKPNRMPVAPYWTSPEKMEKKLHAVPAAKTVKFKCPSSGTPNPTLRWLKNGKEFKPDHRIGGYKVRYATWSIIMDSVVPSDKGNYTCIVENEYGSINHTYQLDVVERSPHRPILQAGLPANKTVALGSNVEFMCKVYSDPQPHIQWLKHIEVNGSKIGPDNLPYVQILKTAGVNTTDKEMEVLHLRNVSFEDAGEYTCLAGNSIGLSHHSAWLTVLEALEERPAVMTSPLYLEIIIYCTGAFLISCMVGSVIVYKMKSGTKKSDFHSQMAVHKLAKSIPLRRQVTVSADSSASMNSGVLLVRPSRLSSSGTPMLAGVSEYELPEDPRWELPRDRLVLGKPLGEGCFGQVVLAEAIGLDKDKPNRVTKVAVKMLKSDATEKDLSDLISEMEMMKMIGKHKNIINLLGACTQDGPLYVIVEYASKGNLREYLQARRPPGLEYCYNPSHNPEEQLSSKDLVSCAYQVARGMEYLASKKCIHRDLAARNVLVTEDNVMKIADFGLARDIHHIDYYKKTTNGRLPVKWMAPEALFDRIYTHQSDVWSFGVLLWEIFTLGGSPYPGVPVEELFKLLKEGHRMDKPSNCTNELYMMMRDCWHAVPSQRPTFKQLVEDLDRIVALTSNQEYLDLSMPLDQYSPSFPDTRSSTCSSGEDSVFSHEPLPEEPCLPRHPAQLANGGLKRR
Test: as above

Point of comparison: AMCVCYDGVEV [ADAMTSL2_Y594_R593C], phosphorylation enrichment 0.511. Against it:
- QMVGMYASSSM [AVPR2_Y124_Y128S] — lower, 0.477
- EFAAGYNVKFD [GPX4_Y123] — higher, 0.697
- HHTDECEYDEL [TGM1_Y134_Y134C] — lower, 0.504
- TNITEYCRDLI [RECQL_Y492_K487T] — lower, 0.498
- EQDRAYLEGTC [HLA-C_Y183_L180D] — higher, 0.521
- LSEEKYELKEG [TREM1_Y29_T25S] — higher, 0.592
- VHSGTYQVTVC [MYBPC3_Y1043_R1048C] — lower, 0.51
- TIEDSYRKQVV [KRAS_Y40] — lower, 0.398
- RICRRYCQVLN [IQCF1_Y144_R141C] — higher, 0.857
- VLICAYLLHRG [PTEN_Y138_M134L] — lower, 0.44
- TLEKFYFAFPG [SLC1A1_Y51] — higher, 8.55
- HFPFQCHRQLY [F12_Y53_Y53C] — higher, 0.639
- AHAGGYGAEAL [HBA1_Y25_E24G] — lower, 0.421
- YKEQGYHRLPP [RIN1_Y681] — higher, 0.622
- RAHARYCADAR [ACOT4_Y52] — lower, 0.406
- CPPKVYELMIA [ABL2_Y515_R519I] — higher, 1.34
- FTFTSYFMHWV [IGHV1-46_Y51_YF] — lower, 0.5
- IRTGIYHGGEP [PIK3CA_Y361_V356I] — lower, 0.385
- CENNRYGMGAS [PDHA1_Y227_T231A] — lower, 0.413
- LDLSYYPTSSS [EMD_Y182] — higher, 3.94
- EQKKYYNAMKK [SCN5A_Y1495] — lower, 0.342
- MSSLYYANALF [HOXB7_Y6_T9A] — higher, 5.32
- QAQMDYRRLQP [MPL_Y591] — lower, 0.306
- DAKTIYDFTDT [PDK1_Y136_A134T] — lower, 0.508
- IHTEFYDGLFP [BCR_Y561_K558T] — higher, 0.683
- PLKFLYPNIDK [STAT1_Y668_YF] — higher, 1.54
- QTPVLYAMLFH [MPZ_Y220_D224Y_YF] — higher, 2.41
- DPLASYLDKVR [KRT10_Y160_R156P] — lower, 0.48
- TVEDHDFEGGI [TKT_Y563_Y563D_YF] — higher, 0.578
- NRNVRYLTLDI [AKR1C2_Y305] — lower, 0.507
- NKHTTYTMEHI [ACTN1_Y708_N707T] — lower, 0.395
- RQNQEYEILMD [KRT39_Y379_L383M] — higher, 0.698
